According to the supplement of paper PMC12636428:

The sequences below were run on Saccharomyces cerevisiae (assay: transcriptional activation domain activity (GFP:mCherry ratio, weighted mean of sorted bins, harmonized to initial dataset scale) (arbitrary fluorescence ratio units); higher = stronger transcriptional activation). Details: beta-estradiol 1 µM; induction time 4 h.
Outline: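 Activation activity, the read-weighted mean of bin median fluorescence averaged across barcodes, was linearly mapped onto the scale of the initial dataset. It was measured for barcoded protein tiles fused to an estradiol-inducible synthetic transcription factor at URA3 in GFP-reporter yeast diploids. Cultures diluted 1:5 into SC with 1 uM beta-estradiol were held 4 hours at 30 °C, sorted into 8 bins by GFP:mCherry ratio, and barcode-sequenced, and tiles under 50 reads were discarded.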

Sequence | transcriptional activation domain activity
YLIGFIGFVMSLQKQYLKSQFGLFCWVHMSLLVIVVSSHFIINNIFEGLIWFW | 79300
DAAAAAAAKKKKQQQQQQQEKEEEAKKEKASSASSASRASSISAHKASVSAAK | 19700
LVYNDCMYIIFHLHMFEYRYGKQLAKTLLYWTYAHTHFCQLVQVESALRQVIQ | 48100
FAGAFKHFQRLGPVSQWDLLAKLPLIVFWILFTCCSLHFYLLFLFLFFIRWVS | 55200
ESLREIGLTSVRDIITRHASEQAILTVVDFPLRVLAMIAQIRCGLWVRNGFVI | 77800
SAAAAAPVAAAAAPAAASSIAPAVVGGAVGAAAIGGGAAIAASSDKAAAAAAA | 37700
MTNRLHIVCHICVFYGYILMFQAITSYHYFILLCILILILHLLTFILVYLYKD | 38400
GAEEGAKEKAGEVAKKRKREVAAAVEDEEGGQPKAEKVRTKKGGGKSKEKKDS | 27400
QLRLFQFDRLVEELLPLVHTHFIRKGIKSSMFASQWFMTLFSYRFPLSLVYRV | 66200
AGGEAAAGGEAAAGEGAAAGGEAKAGEKAAGEGAKAGEEAAGEAKVEAAKPAA | 18400
MGQVGVFALHKVLYGIIPLFEIQTCSFYPLLVSLWHIFYLLVYIVMFMRLIIL | 72300
SHYALCVNMHAYWHSNPHFGSEHRWLGFPPFYHVFGLSYILLLAPCLGATVCV | 61100
MTSRHSFKAIKVLVICCVFLFFLLLKRKDHFNSCCLIFHIKIGLIDVLIFFYF | 41900
MCRCFFWSFLVFFVFFSLLCLFVSFCVFLCFAFLCFVFFVFCFFCFFCLFCVF | 56600
FFLCTFTFFSFCLHLFLFLCVYRLYPTFCSVYPFFPFPILLLFIWLFMWFFIS | 71800
VGKSCGRCRFPICYNPRGTCICCALRSNIVIPWMHFAYRNPHDRKPFVLHFTF | 41700
ATGLAWGVWGKKGAPRFRGSCAERFDTLSSTEWKGSRLVRLVARFDNTVRSVP | 45600
RYLKCGGHVKHFFDLSRRADLSLEWLRRYPMEAVITDQIVSWLCHICLRQMRV | 46000
RKNTSSEEDELEESRNNRNKNHRSRQDGNKEDRSSRSRQSHRQKRERSGSEER | 14100
YSYVDSNMDSISSVVSEDLLDERGHEKIEDEDEDNDLDEDDIYDISLLKNRRK | 26500
EVLHLFIHFSFIFALYMLCFFLPAKHLCNLLTWYKYLFFLLSIMLFFLILIGT | 64200

Sequence | transcriptional activation domain activity
GRRHCNYVQGWLWLSLFSYVCVTYVLSIYISMSFFFWNIAVFLFYFIFVGLLG | 40500
WIVTHSHFIPTAEAGTTGEGMGEGEDRDPDTVRLAVRSLTICMRSANIAMLVG | 53600
GGKAKGRKGKEKEKEKEVADKPAARKCAAPKAAPKKATVKKAAKKVKETGKGS | 28700
GFSRTAGAKSMPASRRTSASGDDDELAGHLQGLSLAGERSNRVSPAPAPVSAS | 44900
EEEYEEEEEEEYEEEEDEEEDEDEEEGGEGEEEDEVKAQRGRRAATAPARARR | 28000
SADTQKEEGKRAKVEKNRRGKRDGHKAGRFSGGRRKERGEASTQAGAAAAGAN | 37500
MVQNWEFFVFFFSFFIFSFCEVYMCAVCGLWCGSPGKLLGLLFLVLLCSLFFF | 40300
EDSEPEPQPQKSQSRRRQSRGRGRRGGDSDNESVARSDVSASGGRRNRQRKQK | 22200
FCRCLTGTGKSRMGVPVVSRLLCHFQGLLLRVMAHLFEDRPGSVRWMTIELLK | 28500
GDKTEGAEGEDGAQRRQSTRGRGRSGRGRGGRGRGGRADENKDEENHEDAGES | 22500
MDLGEERYRRLVSYLFFSFLYLHFIFLYFSFLWFMACGSWQWLNNLFFFISSF | 63800
MIRPFSIYSITLDVFPWLLNLFFLFFFLILFPLLRNFLFCVVSLIQNIQPLCF | 30400
ATNLFFTAAIFYFIFVVFGVILVLLYKALCELLIRSKKIGSESHLFHFIHNGW | 44900
MVCTLDHFQFVGLIYFAFFFIVISYFIDSVIFILFFVYFPFFVFLLLFVIAFY | 54800
IPGPILLCSLTALSCLTLFTLLVSIYWSVSSVCHLIFLTILWILRCLVTLLRF | 34600
PSGSPLTPSSGKGGRSASLGDAESNKTGEPYGPHSGKAYFEVCVNVGKHAIRL | 37500
ARNGSSSGDILFSNGAHDMINNISTWTNNSVLDALNSKSILQTIFPQSQEPSS | 58200
MALFLSIFLLFFFLLYLSQITHFHGILFCFFLLCAPCLYIPDSCNPLIQPLFP | 35300
FSTSLTSWSTSLNLLFFYMTWSTLVLSHSPLRIELIGITAIRTVLWLIPSLVF | 63100
IFNPLNWVFVQSSKVFPVDYILALLLVFDFFISSVVGIAFIGIRFLWVTLFRL | 71500
HLSLSPSLIPTLSFFLLLLYPLVFFIFIIYRGPLFFLFDLTHLICFIYILFIL | 27400

Sequence | transcriptional activation domain activity
APPPPPPPPPPPPPPPSSSSAPSPSSTSAPPPPPPPPPPPPPPPGGGGPPPPP | 32900
FKSQLFCFYNLRLFVSCQPKHLNDLVDLLKKYHGSHVYQFVFTLSAFLERVAQ | 48800
WWLRINLNICISYWIVATGVVVVYDWVLTLYGACQILLVMQMFVLGPCLILSV | 46900
TGTEQKKGIGGRRRRSKQASKQGSRPVCGHACACVCLCVPCLSCVCVSVLHLL | 67800
MYCMRYFAPLFLLPFPDAPPFFVVLSLISFFLHQKPCIYCVFLLLALFSSTCY | 61400
KSVLCDLVFTMFADLRDPSVSRRFATVDDLELWFSTTLIKALRHLVALFTEYY | 50400
LKKHDVNALVTVICNFLICITMALCVVWDSELLPDCLFRVKLIYTLITLGFLC | 63400
NITKVAERGERLDSLQDKTDNLAVSAQGFRRGANRVRKVSSVVPFIQHSAHKL | 22000
MHCEGCIQVIYRCYCLLIFLFFYYVCLFCLYILGKQLGLVHVFFYKYWCFFIL | 53100
RGGRGRRNGGKERGKEKKGKKEEENDRRGKGKERKERRKNDGGKRREGREREK | 47600
EKKAPGRRGRPPKAAAAKKAKEAAAPGEEGAKPKRPVGRPRKGTTETAEKKGA | 22300
FLLTVYHIELLRNKSGDCSFMLRYFMNQGVNNSSLSTCMEHVAEAVVSTFINE | 30600
TIHHLKDSRSSSWTVAIDNNSNNNKVSDNQPDFVDFQELLDNDTLGNDLLETT | 61400
EMRHVILIVFIGMVGCWISQWVFWVGFLKLYSGQGYCPPRLGTLALNWILFSV | 43200
MLYFFFFYVYNVNIKQYLSIIMILFINGFSFYIYFLFHFLYIFFFFFLTITLS | 88500
MALYLTFRHCPELFYWVKLRRVSRKIHTFISSIFNIFLYVLMLMNGCIIHHYI | 57200
MALIAFFLLFYLINLLYSLKLFLQYFFFTFTIPYLYIAYAFFFILYSLFLVFS | 42900
MRLLYCFFHPGRIFDWFCWIHHVFLLVFGWLPLDWLYNLWGLGSLPWTLQNMP | 47300
PSSTARRKLLLIYIDFKFFLAASWFRLCNLTLIGSVWWPIWGYMCWILSGPLF | 67300
IKDIEINDLRNRYTLTKGAVQKKGPRLVRPLRISSSPECTEPRPSPCLSVSLS | 45600
ASASASALPSSGFGATRGMKVRASVKKICEGCSSVKRRGRVFIICSKNQKHKQ | 36400

Sequence | transcriptional activation domain activity
SMLKIARQSPRGIRDSKGGEGFLLLESGDQSTNIVTVVRIKLLMEKLYTLPEL | 32200
GNTGAGGEALVRSVGGSSAVEYPVCVEMDVVSGADGGEKLVWRTACDSRFVDG | 44800
FSAEIAILRWLKGNRQNDYIGALTSINRGLKLMYVHAYQSLVWNRAVSERWAR | 57900
EGSEEKKERSRRHGDSDRRERRRHRSGSRSRDHDRDRERRHRRHRRSRSRDKE | 13400
MKKLEKLLLSNDLTSQKKAFLVLCRMHYLTSSLLSSCVVVLVVGWSSIQKNTT | 63400
DSNILAILPAVVYLQHSCYCLYFFYLYCFCLFLMSIDVAILYCLLYKIIPLFH | 43400
MYILFFFNIYYLYSILHLFCFRFFFISLFSFSFSLLSLLTYFLQYYIIIYLKI | 58200
MISIAGFYLFFLGYWRFWMLFINLIVGLLATIGHHVSGLACLIFFCGSSVRIS | 35300
FSYFYCFFFPLFTFFLFHIFVLLSIKQFLFLFLFVFLFLVLLFIVPPLFPVSV | 17300
MRDIIGISIFLFFSLFLFYLSFCFCMRNVNLSFSLFILTLIDCLTDLLIMVPI | 60300
KDQIMYYIHLVIMISTIIQALVQHMIVVNTLPTYFCHPINVFSNFFWHVQFTL | 39300
HDDSFIESEEWLSKFIMDSQIDNDLKLNINHFNDIGFNNLHPQNPTTHSEPRN | 117000
VRVPDFHHADGRDHVRDGEDGHGDGHVRVHAHAQGGGQGRGLARDRVDAHARE | 13200
IIAKVIKYAKTIEELYLAYFSVKEYLLNIAIAKTCLTYLTDIKGSHSMIRYNF | 28200
NNTNNASPATSTVSLQLPNLPDQNSLTPNAQNNTVTLRKGFHVLLVEDDAVSI | 23700
FGESCAGVLPVTMYDNRLNRHSEHHGKNVYEKMVSGRYLGELVRWILVELLDR | 54500
LIPIVVLNMYSLLMLLFIRGWFSYLIAVVSISGVLVLHMLYFLLQWRLKYILW | 65600
FWFPNYLFEALTFFSWMTWISPNNLNLEILTGFRNGLGMFNPWPTFDWNVLLF | 51500
MPTTSHSLFLRYVFLFVAWLVFREVFALMGFFLLLIFLIPKIVKVPFFFFFFL | 55000
ALILIFSQLTFTPYALESRNLHVAVRIFRVLIDLLEQAKSGKIRLTILQFLMR | 71100
